Ten molecules from patent publication US11499162B2, “Plants having increased tolerance to herbicides” (BASF SE, priority 2016, dated 2022) can be followed below.

First the molecules themselves.
B1: V69S: mutated TriA variant of SEQ ID NO: 2 (protein)
chain: MQTLSIQHGTLVTMDQYRRVLGDSWVHVQDGRIVALGVHAESVPPPADRVIDARGKVVLPGFINAHTHSNQILLRGGPSHGRQLYDWLFNVLYPGQKAMRPEDVAVAVRLYCAEAVRSGITTINDNADSAIYPGNIEAAMAVYGEVGVRVVYARMFFDRMDGRIQGYVDALKARSPQVELCSIMEETAVAKDRITALSDQYHGTAGGRISVWPAPAITPAVTVEGMRWAQAFARDRAVMWTLHMAESDHDERLHWMSPAEYMECYGLLDERLQVAHCVYFDRKDVRLLHRHNVKVASQVVSNAYLGSGVAPVPEMVERGMAVGIGTDDGNCNDSVNMIGDMKFMAHIHRAVHRDADVLTPEKILEMATIDGARSLGMDHEIGSIETGKRADLILLDLRHPQTTPHHHLAATIVFQAYGNEVDTVLIDGNVVMENRRLSFLPPERELAFLEEAQSRATAILQRANMVANPAWRSL
modifications: Pseudomonas
B2: R82L: mutated TriA variant of SEQ ID NO: 2 (protein)
chain: MQTLSIQHGTLVTMDQYRRVLGDSWVHVQDGRIVALGVHAESVPPPADRVIDARGKVVLPGFINAHTHVNQILLRGGPSHGLQLYDWLFNVLYPGQKAMRPEDVAVAVRLYCAEAVRSGITTINDNADSAIYPGNIEAAMAVYGEVGVRVVYARMFFDRMDGRIQGYVDALKARSPQVELCSIMEETAVAKDRITALSDQYHGTAGGRISVWPAPAITPAVTVEGMRWAQAFARDRAVMWTLHMAESDHDERLHWMSPAEYMECYGLLDERLQVAHCVYFDRKDVRLLHRHNVKVASQVVSNAYLGSGVAPVPEMVERGMAVGIGTDDGNCNDSVNMIGDMKFMAHIHRAVHRDADVLTPEKILEMATIDGARSLGMDHEIGSIETGKRADLILLDLRHPQTTPHHHLAATIVFQAYGNEVDTVLIDGNVVMENRRLSFLPPERELAFLEEAQSRATAILQRANMVANPAWRSL
modifications: Pseudomonas
B3: Q96A: mutated TriA variant of SEQ ID NO: 2 (protein)
chain: MQTLSIQHGTLVTMDQYRRVLGDSWVHVQDGRIVALGVHAESVPPPADRVIDARGKVVLPGFINAHTHVNQILLRGGPSHGRQLYDWLFNVLYPGAKAMRPEDVAVAVRLYCAEAVRSGITTINDNADSAIYPGNIEAAMAVYGEVGVRVVYARMFFDRMDGRIQGYVDALKARSPQVELCSIMEETAVAKDRITALSDQYHGTAGGRISVWPAPAITPAVTVEGMRWAQAFARDRAVMWTLHMAESDHDERLHWMSPAEYMECYGLLDERLQVAHCVYFDRKDVRLLHRHNVKVASQVVSNAYLGSGVAPVPEMVERGMAVGIGTDDGNCNDSVNMIGDMKFMAHIHRAVHRDADVLTPEKILEMATIDGARSLGMDHEIGSIETGKRADLILLDLRHPQTTPHHHLAATIVFQAYGNEVDTVLIDGNVVMENRRLSFLPPERELAFLEEAQSRATAILQRANMVANPAWRSL
modifications: Pseudomonas
B4: L74V: mutated TriA variant of SEQ ID NO: 2 (protein)
chain: MQTLSIQHGTLVTMDQYRRVLGDSWVHVQDGRIVALGVHAESVPPPADRVIDARGKVVLPGFINAHTHVNQILVRGGPSHGRQLYDWLFNVLYPGQKAMRPEDVAVAVRLYCAEAVRSGITTINDNADSAIYPGNIEAAMAVYGEVGVRVVYARMFFDRMDGRIQGYVDALKARSPQVELCSIMEETAVAKDRITALSDQYHGTAGGRISVWPAPAITPAVTVEGMRWAQAFARDRAVMWTLHMAESDHDERLHWMSPAEYMECYGLLDERLQVAHCVYFDRKDVRLLHRHNVKVASQVVSNAYLGSGVAPVPEMVERGMAVGIGTDDGNCNDSVNMIGDMKFMAHIHRAVHRDADVLTPEKILEMATIDGARSLGMDHEIGSIETGKRADLILLDLRHPQTTPHHHLAATIVFQAYGNEVDTVLIDGNVVMENRRLSFLPPERELAFLEEAQSRATAILQRANMVANPAWRSL
modifications: Pseudomonas
B5: L74A: mutated TriA variant of SEQ ID NO: 2 (protein)
chain: MQTLSIQHGTLVTMDQYRRVLGDSWVHVQDGRIVALGVHAESVPPPADRVIDARGKVVLPGFINAHTHVNQILARGGPSHGRQLYDWLFNVLYPGQKAMRPEDVAVAVRLYCAEAVRSGITTINDNADSAIYPGNIEAAMAVYGEVGVRVVYARMFFDRMDGRIQGYVDALKARSPQVELCSIMEETAVAKDRITALSDQYHGTAGGRISVWPAPAITPAVTVEGMRWAQAFARDRAVMWTLHMAESDHDERLHWMSPAEYMECYGLLDERLQVAHCVYFDRKDVRLLHRHNVKVASQVVSNAYLGSGVAPVPEMVERGMAVGIGTDDGNCNDSVNMIGDMKFMAHIHRAVHRDADVLTPEKILEMATIDGARSLGMDHEIGSIETGKRADLILLDLRHPQTTPHHHLAATIVFQAYGNEVDTVLIDGNVVMENRRLSFLPPERELAFLEEAQSRATAILQRANMVANPAWRSL
modifications: Pseudomonas
B6: R82G: mutated TriA variant of SEQ ID NO: 2 (protein)
chain: MQTLSIQHGTLVTMDQYRRVLGDSWVHVQDGRIVALGVHAESVPPPADRVIDARGKVVLPGFINAHTHVNQILLRGGPSHGGQLYDWLFNVLYPGQKAMRPEDVAVAVRLYCAEAVRSGITTINDNADSAIYPGNIEAAMAVYGEVGVRVVYARMFFDRMDGRIQGYVDALKARSPQVELCSIMEETAVAKDRITALSDQYHGTAGGRISVWPAPAITPAVTVEGMRWAQAFARDRAVMWTLHMAESDHDERLHWMSPAEYMECYGLLDERLQVAHCVYFDRKDVRLLHRHNVKVASQVVSNAYLGSGVAPVPEMVERGMAVGIGTDDGNCNDSVNMIGDMKFMAHIHRAVHRDADVLTPEKILEMATIDGARSLGMDHEIGSIETGKRADLILLDLRHPQTTPHHHLAATIVFQAYGNEVDTVLIDGNVVMENRRLSFLPPERELAFLEEAQSRATAILQRANMVANPAWRSL
modifications: Pseudomonas
B7: Q96E: mutated TriA variant of SEQ ID NO: 2 (protein)
chain: MQTLSIQHGTLVTMDQYRRVLGDSWVHVQDGRIVALGVHAESVPPPADRVIDARGKVVLPGFINAHTHVNQILLRGGPSHGRQLYDWLFNVLYPGEKAMRPEDVAVAVRLYCAEAVRSGITTINDNADSAIYPGNIEAAMAVYGEVGVRVVYARMFFDRMDGRIQGYVDALKARSPQVELCSIMEETAVAKDRITALSDQYHGTAGGRISVWPAPAITPAVTVEGMRWAQAFARDRAVMWTLHMAESDHDERLHWMSPAEYMECYGLLDERLQVAHCVYFDRKDVRLLHRHNVKVASQVVSNAYLGSGVAPVPEMVERGMAVGIGTDDGNCNDSVNMIGDMKFMAHIHRAVHRDADVLTPEKILEMATIDGARSLGMDHEIGSIETGKRADLILLDLRHPQTTPHHHLAATIVFQAYGNEVDTVLIDGNVVMENRRLSFLPPERELAFLEEAQSRATAILQRANMVANPAWRSL
modifications: Pseudomonas
B8: N70LQ71IL74A: mutated TriA variant of SEQ ID NO: 2 (protein)
chain: MQTLSIQHGTLVTMDQYRRVLGDSWVHVQDGRIVALGVHAESVPPPADRVIDARGKVVLPGFINAHTHVLIILARGGPSHGRQLYDWLFNVLYPGQKAMRPEDVAVAVRLYCAEAVRSGITTINDNADSAIYPGNIEAAMAVYGEVGVRVVYARMFFDRMDGRIQGYVDALKARSPQVELCSIMEETAVAKDRITALSDQYHGTAGGRISVWPAPAITPAVTVEGMRWAQAFARDRAVMWTLHMAESDHDERLHWMSPAEYMECYGLLDERLQVAHCVYFDRKDVRLLHRHNVKVASQVVSNAYLGSGVAPVPEMVERGMAVGIGTDDGNCNDSVNMIGDMKFMAHIHRAVHRDADVLTPEKILEMATIDGARSLGMDHEIGSIETGKRADLILLDLRHPQTTPHHHLAATIVFQAYGNEVDTVLIDGNVVMENRRLSFLPPERELAFLEEAQSRATAILQRANMVANPAWRSL
modifications: Pseudomonas
B9: Q96D: mutated TriA variant of SEQ ID NO: 2 (protein)
chain: MQTLSIQHGTLVTMDQYRRVLGDSWVHVQDGRIVALGVHAESVPPPADRVIDARGKVVLPGFINAHTHVNQILLRGGPSHGRQLYDWLFNVLYPGDKAMRPEDVAVAVRLYCAEAVRSGITTINDNADSAIYPGNIEAAMAVYGEVGVRVVYARMFFDRMDGRIQGYVDALKARSPQVELCSIMEETAVAKDRITALSDQYHGTAGGRISVWPAPAITPAVTVEGMRWAQAFARDRAVMWTLHMAESDHDERLHWMSPAEYMECYGLLDERLQVAHCVYFDRKDVRLLHRHNVKVASQVVSNAYLGSGVAPVPEMVERGMAVGIGTDDGNCNDSVNMIGDMKFMAHIHRAVHRDADVLTPEKILEMATIDGARSLGMDHEIGSIETGKRADLILLDLRHPQTTPHHHLAATIVFQAYGNEVDTVLIDGNVVMENRRLSFLPPERELAFLEEAQSRATAILQRANMVANPAWRSL
modifications: Pseudomonas
B10: R82M: mutated TriA variant of SEQ ID NO: 2 (protein)
chain: MQTLSIQHGTLVTMDQYRRVLGDSWVHVQDGRIVALGVHAESVPPPADRVIDARGKVVLPGFINAHTHVNQILLRGGPSHGMQLYDWLFNVLYPGQKAMRPEDVAVAVRLYCAEAVRSGITTINDNADSAIYPGNIEAAMAVYGEVGVRVVYARMFFDRMDGRIQGYVDALKARSPQVELCSIMEETAVAKDRITALSDQYHGTAGGRISVWPAPAITPAVTVEGMRWAQAFARDRAVMWTLHMAESDHDERLHWMSPAEYMECYGLLDERLQVAHCVYFDRKDVRLLHRHNVKVASQVVSNAYLGSGVAPVPEMVERGMAVGIGTDDGNCNDSVNMIGDMKFMAHIHRAVHRDADVLTPEKILEMATIDGARSLGMDHEIGSIETGKRADLILLDLRHPQTTPHHHLAATIVFQAYGNEVDTVLIDGNVVMENRRLSFLPPERELAFLEEAQSRATAILQRANMVANPAWRSL
modifications: Pseudomonas

The format of this data set is biochemical. As to conditions: pH 7.2. The method in brief: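 TriA variants, N-His-tagged, were expressed in E. coli BL21(DE3) Gold with groEL/groES chaperones and purified by Ni-IDA affinity. Enzyme in 25 mM sodium phosphate pH 7.2 was incubated with azine substrates at 1 nM to 10 nM, 30° C. Products were identified by UPLC-HR-MS.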
With B1, the “Degradation in % of 6-cyclopentyl-N4-(2,3,4,5,6-pentafluorophenyl)-1,3,5-triazine-2,4-diamine” value stood at 3% and the “Degradation in % of Melamine” value is 5%.
In the same order, the values of B2 are 1% and 1%.
For B3, the “Degradation in % of 6-cyclopentyl-N4-(2,3,4,5,6-pentafluorophenyl)-1,3,5-triazine-2,4-diamine” value was 0% and the “Degradation in % of Melamine” value worked out at 0%.
Turning to B4, the “Degradation in % of 6-cyclopentyl-N4-(2,3,4,5,6-pentafluorophenyl)-1,3,5-triazine-2,4-diamine” value is 0% and the “Degradation in % of Melamine” value was found to be 3%.
Take B5: the “Degradation in % of 6-cyclopentyl-N4-(2,3,4,5,6-pentafluorophenyl)-1,3,5-triazine-2,4-diamine” value was 1% and the “Degradation in % of Melamine” value is on record as 0%.
On the same counts, the results for B6 are 0% and 0%.
In the same order, the values of B7 are 0% and 0%.
On the same counts, the results for B8 are 0% and 2%.
For the molecule B9, the “Degradation in % of 6-cyclopentyl-N4-(2,3,4,5,6-pentafluorophenyl)-1,3,5-triazine-2,4-diamine” value stood at 4% and the “Degradation in % of Melamine” value is recorded as 0%.
In the same order, the values of B10 are 2% and 2%.
